One block for each binder: values may come before it.
Experiments:
atomic force microscopy = target: the molecule itself; assay: atomic force microscopy
SecA (wild type) = SecA (wild type) (E. coli, UniProt P10408 1-901); assay: atomic force microscopy

B1: SecAC4Q801C, cross-linked dimeric species (SecA C98S, C885S, C887S, C896S, Q801C) (enzyme)
chain: MLIKLLTKVFGSRNDRTLRRMRKVVNIINAMEPEMEKLSDEELKGKTAEFRARLEKGEVLENLIPEAFAVVREASKRVFGMRHFDVQLLGGMVLNERSIAEMRTGEGKTLTATLPAYLNALTGKGVHVVTVNDYLAQRDAENNRPLFEFLGLTVGINLPGMPAPAKREAYAADITYGTNNEYGFDYLRDNMAFSPEERVQRKLHYALVDEVDSILIDEARTPLIISGPAEDSSEMYKRVNKIIPHLIRQEKEDSETFQGEGHFSVDEKSRQVNLTERGLVLIEELLVKEGIMDEGESLYSPANIMLMHHVTAALRAHALFTRDVDYIVKDGEVIIVDEHTGRTMQGRRWSDGLHQAVEAKEGVQIQNENQTLASITFQNYFRLYEKLAGMTGTADTEAFEFSSIYKLDTVVVPTNRPMIRKDLPDLVYMTEAEKIQAIIEDIKERTAKGQPVLVGTISIEKSELVSNELTKAGIKHNVLNAKFHANEAAIVAQAGYPAAVTIATNMAGRGTDIVLGGSWQAEVAALENPTAEQIEKIKADWQVRHDAVLEAGGLHIIGTERHESRRIDNQLRGRSGRQGDAGSSRFYLSMEDALMRIFASDRVSGMMRKLGMKPGEAIEHPWVTKAIANAQRKVESRNFDIRKQLLEYDDVANDQRRAIYSQRNELLDVSDVSETINSIREDVFKATIDAYIPPQSLEEMWDIPGLQERLKNDFDLDLPIAEWLDKEPELHEETLRERILAQSIEVYQRKEEVVGAEMMRHFEKGVMLQTLDSLWKEHLAAMDYLRQGIHLRGYAQKDPKCEYKRESFSMFAAMLESLKYEVISTLSKVQVRMPEEVEELEQQRRMEAERLAQMQQLSHQDDDSAAAAALAAQTGERKVGRNDPSPSGSGKKYKQSHGRLQ
modifications: cross-linked dimer (so in the source); the chemistry of the cross-link is not told
- binding result (atomic force microscopy): binds

- binding result (SecA (wild type)): binds
B2: SecYEG translocon (SecY C329S, C385S; His-tagged SecE; SecG) (complex)
chain 1: MAKQPGLDFQSAKGGLGELKRRLLFVIGALIVFRIGSFIPIPGIDAAVLAKLLEQQRGTIIEMFNMFSGGALSRASIFALGIMPYISASIIIQLLTVVHPTLAEIKKEGESGRRKISQYTRYGTLVLAIFQSIGIATGLPNMPGMQGLVINPGFAFYFTAVVSLVTGTMFLMWLGEQITERGIGNGISIIIFAGIVAGLPPAIAHTIEQARQGDLHFLVLLLVAVLVFAVTFFVVFVERGQRRIVVNYAKRQQGRRVYAAQSTHLPLKVNMAGVIPAIFASSIILFPATIASWFGGGTGWNWLTTISLYLQPGQPLYVLLYASAIIFFSFFYTALVFNPRETADNLKKSGAFVPGIRPGEQTAKYIDKVMTRLTLVGALYITFISLIPEFMRDAMKVPFYFGGTSLLIVVVVIMDFMAQVQTLMMSSQYESALKKANLKGYGR
chain 2: MSANTEAQGSGRGLEAMKWVVVVALLLVAIVGNYLYRDIMLPLRALAVVILIAAAGGVALLTTKGKATVAFAREARTEVRKVIWPTRQETLHTTLIVAAVTAVMSLILWGLDGILVRLVSFITGLRF
chain 3: MYEALLVVFLIVAIGLVGLIMLQQGKGADMGASFGAGASATLFGSSGSGNFMTRMTALLATLFFIISLVLGNINSNKTNKGSEWENLSAPAKTEQTQPAAPAKPTSDIPN

Reference: publication PMC6561738 (Science Advances, 2019)
